Marks after values point to notes of the source that are not given here.
Columns and labels:
Format in all cases: binding
[1] = Fluorescence enhancement of fluoro-labeled Fab complex / scFv with cocaine; settings: antigen Cocaine 100 μg/mL versus absence of antigen
[2] = Fluorescence enhancement of fluoro-labeled Fab complex / scFv with morphine; settings: antigen Morphine 100 μg/mL versus absence of antigen
[3] = Fluorescence enhancement of fluoro-labeled Fab complex / scFv with ketamine; settings: for Fluorescence enhancement: 1.0 mg/mL Ketamine versus absence of antigen, Ex/Em 530/580
[4] = Fluorescence enhancement of fluoro-labeled Fab complex with MDA; settings: antigen MDA 100 μg/mL versus absence of antigen
[5] = Measurement of ractopamine using fluoro-labeled Fab complex; settings: 3.4 μg/mL Ractopamine versus absence of antigen, Ex/Em 530/580
[6] = Measurement of cannabinoid component THC using fluoro-labeled Fab complex; settings: 100 μg/mL THC versus absence of antigen, Ex/Em 530/580
[7] = Measurement of clenbuterol using fluoro-labeled Fab complex; settings: 16 μg/mL Clenbuterol versus absence of antigen; Ex/Em 480/530
[8] = Measurement of cotinine using fluoro-labeled Fab complex; settings: 3.5 μg/mL Cotinine versus absence of antigen, Ex/Em 530/580
[9] = biological target: HSA (Homo sapiens, UniProt P02768); assay: Fluorescence emission spectrum measurement, different-color double-label anti-SA Fab complex with HSA; settings: antigen HSA; ratio to no antigen
Source text: Similarly, the different-color double-label Fab complex of the anti-SA antibody prepared in Example 1 comprising a polypeptide containing a heavy chain variable region (VH; SEQ ID NO: 12) of an anti-SA antibody labeled with a CR110, TAMRA, or ATTO 655 fluorescent dye and an antibody heavy chain constant domain (CH1; SEQ ID NO: 6), and a polypeptide containing a light chain variable region (VL; SEQ ID NO: 10) of an anti-SA antibody labeled with a dye differing from the above dye and an antibody light chain constant domain (Cκ; SEQ ID NO: 4) was reacted with antigenic HSA (0 to 100 μM), and then fluorescence intensity was measured. The ratio of the fluorescence intensity at each antigen concentration to the fluorescence intensity when no antigen was present was designated as the “fluorescence intensity ratio” and is shown in the graphs of FIG. 10. […]
Moreover, when irradiated with excitation light with a wavelength of 530 nm, fluorescence intensity ratios obtained at a fluorescence wavelength of about 530 nm in the case of CR110_TAMRA was higher than those of no_TAMRA, because of the quenching effect due to the interaction between the fluorescent dyes. […]

B1: Anti-Cocaine: same-color double-label Fab complex of anti-cocaine antibody; TAMRA-labeled VL (SEQ ID NO: 27) and VH (SEQ ID NO: 28) (antibody, V domains shown)
VH: DVTLQESGGGLVQPGGSMKLSCAASGFTFSDAWVDWVRQSPGKGLEWVAEIRNKANNHATKYTESVKGRFTISRDDSKSSVYLQMNSLRAEDTGIYYCTSVPQLGRGFAYWGQGTLVTVSS
VL: DIVMTQAAPSVPVTPGESVSISCRSSKSLLHSNGYTYLHWFLQRPGQSPQLLIYRVSNLASGVPDRFSGSGSGTAFTLRFSRVEAEDVGVYYCMQHLEYPFTFGSGTKLEIKR
modifications: Fab; TAMRA labels; Coca-VH-28; Coca-VL-27
With B1 the “Fluorescence enhancement in the presence of 100 μg/mL antigen” value (“Fluorescence enhancement in the presence” for short) [1] was 3.7, the “Fluorescence enhancement in the presence” value [2] was 0.9 and the “Fluorescence enhancement in the presence” value ([3]; antigen Ketamine 100 μg/mL versus absence of antigen) was 0.9. The “Fluorescence enhancement in the presence” value [4] was 0.9.

B2: Anti-Ractopamine: same-color double-label Fab complex of anti-ractopamine antibody; TAMRA-labeled VL (SEQ ID NO: 17) and VH (SEQ ID NO: 18) (antibody, V domains shown)
VH: DVQLVESGPGLVKPSQSLSLTCTVTGYSITSDYAWNWIRQFPGNKLEWMGYIFYSGSTSYNPSLKSRISITRDTSKNQFFLQLNSVTTEDTATYFCARLAYYYDYDGYAMDYWGQGTSVTVSS
VL: DILMTQTPLSLPVSLGDQASISCRSSQNIVHSDGNTYLEWYLQKPGQSPKLLISKVSNRFSGVPDRFSGSGSGTDFTLKISRVEAEDLGIYYCFQGSHVPWTFGGGTKLEIKR
modifications: Fab; TAMRA labels; Ract-VH-18; Ract-VL-17
For B2, the Fluorescence enhancement [5] was 2.3*^1 and the Fluorescence enhancement ([5]; listed as anti-ractopamine) was 2.3.

B3: Anti-THC: same-color double-label Fab complex of anti-THC antibody; TAMRA-labeled VL (SEQ ID NO: 29) and VH (SEQ ID NO: 30) (antibody, V domains shown)
VH: EVKLVESGGGLVKPGGSLKLSCAASGFTFNNYVMVWLRQTPEKRLEWVASISRGGSTYYPDSVKGRFTISRDNARNILYLQMSSLRSEDTAMYYCVRGTTIVAGDVWGAGTTVTVSS
VL: DIVLTQSPTTMAASPGEKITITCSASSSISSNYLHWYQQKPGFSPKLLIYRTSNLASGVPARFSGSGSGTSYSLTIGTMEAEDVATYYCQQGSSIPLTFGAGTKLELKR
modifications: Fab; TAMRA labels; THC-VH-30; THC-VL-29
For B3, the Fluorescence enhancement [6] was 1.3*^1 and the Fluorescence enhancement ([6]; listed as anti-THC) was 1.3.

B4: Anti-Clenbuterol: different-color double-label Fab complex of anti-clenbuterol antibody; CR110-labeled VL (SEQ ID NO: 15)+Cκ, TAMRA-labeled VH (SEQ ID NO: 16)+CH1 (antibody, V domains shown)
VH: QVKLQESGGGLVKPRGSLKLSCAASGFTFSSYDMSWVRQTPEKRLEWVASIRSGGYYTLYPDSVKGRFTISRDNVKNTLYLQMSSLRSEDTAMYYCSRDGNDEYFDVWGAGTTVTVSS
VL: DIELTQSPAILSASPGEKVTMTCSANSSVSYMHWYQQKSRTSPKLWIYDTSKLASGVPGRFSGSGSGNSYSLTISSMEAEDVATYYCFQGSKYPFTFGSGTRLEIKR
modifications: Ckappa and CH1 without entry; CR110, TAMRA labels; Clen-VH-16; Clen-VL-15
With B4 the Fluorescence enhancement [7] was 1.5.

B5: Anti-Ketamine: same-color double-label Fab complex of anti-ketamine antibody; TAMRA-labeled VL (SEQ ID NO: 31) and VH (SEQ ID NO: 32) (antibody, V domains shown)
VH: QVQLKESGPGLVAPSQSLSITCTVSGFALTGYGVNWVRQPPGKGLEWLGMIWGDGNTDYNSALKSRLSISKDNSKSQVFLKMNSLQTDDTARYYCARGNGYFYVLDYWGQGTSVTVSS
VL: QAVVTQESALTTSPGETVTLTCRSSTGAVTTSNYANWVQEKPDHLFTGLIGGTNNRAPGVPARFSGSLIGDKAALTITGAQTEDEAIYFCSLWYSNHLVFGGGTKLTVLGQ
modifications: Fab; TAMRA labels; Keta-VH-32; Keta-VL-31
In the case of B5, the Fluorescence enhancement [3] is reported as 2.0*^2 and the Fluorescence enhancement ([3]; listed as anti-ketamine) is reported as 2.0.

B6: Anti-cotinine: same-color double-label Fab complex of anti-cotinine antibody; TAMRA-labeled VL (SEQ ID NO: 19) and VH (SEQ ID NO: 20) (antibody, V domains shown)
VH: QQQLVESGGRLVTPGGSLTLTCTASGFSLNNYWMSWVRQAPGKGLEWIGDIHGNRGFNYHASWAKGRFTVSRTSTTVDLRMTSLTTEDTAIYFCARADDSGSHDIWGPGTLVTVSS
VL: ELDLTQTPSPVSAAVGDTVTINCQSSQSVYSAKLSWYQQKPGQPPKLLIYYGSTLASGVPSRFKGSGSGTQFSLTISDVQCADAATYYCQGTYYGPDWYFAFGGGTEVVVKR
modifications: Fab; TAMRA labels; Coti-VH-20; Coti-VL-19
In the case of B6, the Fluorescence enhancement [8] is reported as 1.9*^2 and the Fluorescence enhancement ([8]; listed as anti-cotinine) is reported as 1.9.

B7: CR110_TAMRA: different-color double-label Fab complex of anti-SA antibody; CR110-labeled VH (SEQ ID NO: 12)+CH1, TAMRA-labeled VL (SEQ ID NO: 10)+Cκ (antibody, V domains shown)
VH: EVQLLESGGGLVQPGGSLRLSCAASGFTFSSYAMSWVRQAPGKGLEWVSHISPYGANTRYADSVKGRFTISRDNSKNTLYLQMNSLRAEDTAVYYCAKGLRAFDYWGQGTLVTVSS
VL: DIQMTQSPSSLSASVGDRVTITCRASQSISSYLNWYQQKPGKAPKLLIYRASLLQSGVPSRFSGSGSGTDFTLTISSLQPEDFATYYCQQGRDRPATFGQGTKVEIKR
modifications: CH1 and Ckappa constant domains; CR110 and TAMRA labels; anti-SA antibody VH; anti-SA antibody VL
Work on B7 yielded a maximum fluorescence enhancement [9] of 75 fold.

— patent US20140329228A1 (Ushio Denki Kabushiki Kaisha, priority 2011, published 2014)
